We go through five molecules from patent US20230051715A1 (MABWELL THERAPEUTICS, published 2023).

The target in test [1] is T1, human C1s deletion mutant 2 (NHC) (human, UniProt P09871 16-437).
T1 construct: C-terminal 6xHis tag; also called HuC1s(NHC); huC1sNHC
T1 sequence: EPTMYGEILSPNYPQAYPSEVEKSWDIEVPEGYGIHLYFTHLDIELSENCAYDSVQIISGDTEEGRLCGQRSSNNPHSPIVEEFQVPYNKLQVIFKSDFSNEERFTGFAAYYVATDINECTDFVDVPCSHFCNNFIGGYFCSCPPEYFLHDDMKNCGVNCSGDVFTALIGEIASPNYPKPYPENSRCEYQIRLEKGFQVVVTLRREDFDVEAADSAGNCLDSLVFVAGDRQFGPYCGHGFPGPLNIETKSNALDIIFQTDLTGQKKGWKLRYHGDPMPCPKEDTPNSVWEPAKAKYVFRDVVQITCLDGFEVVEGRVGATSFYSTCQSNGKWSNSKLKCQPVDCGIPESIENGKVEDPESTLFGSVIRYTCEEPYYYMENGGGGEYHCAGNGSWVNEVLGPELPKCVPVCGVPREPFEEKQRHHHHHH
Nature of the test: ELISA, plate coated with 200 ng/well HuC1s(NHC), OD450nm. The method, then: (§1) ELISA was carried out by first coating 96-well plates with 200 ng/well of full-length or truncated C1s proteins overnight. The next morning, plates were blocked with SuperBlock T20 blocking buffer (Thermo Scientific 37536) for 1 h with gentle shaking. Then, various concentrations of anti-C1s antibodies diluted in SuperBlock T20 blocking buffer were added to the plates and incubated for 1 h with gentle shaking. Mouse IgG (Sigma-Aldrich 15381) and human IgG1 (BioXCell BP0297) were used as negative controls. The plates were washed before incubating with HRP conjugated secondary antibodies diluted in SuperBlock T20 blocking buffer (goat anti-mouse IgG (H+L) cross-adsorbed secondary antibody HRP (Invitrogen G-21040) or goat anti-human IgG antibody, HRP conjugate (Millipore AP309P)) for 1 h with gentle shaking. At last, the plates were washed and color developed with ELISA liquid HRP substrate (Sigma-Aldrich), followed by stopping the reaction with addition of 1M H₂SO₄ in the same volume as the ELISA liquid substrate. Bound antibody was measured by absorbance at OD₄₅₀ₙₘ.
(In general: ELISA stands for enzyme-linked immunosorbent assay.)

The target in test [2] is T2, human C1s mutant M1 (M277I) (human, UniProt P09871 16-688).
T2 construct: The entry is the mutant itself
T2 sequence: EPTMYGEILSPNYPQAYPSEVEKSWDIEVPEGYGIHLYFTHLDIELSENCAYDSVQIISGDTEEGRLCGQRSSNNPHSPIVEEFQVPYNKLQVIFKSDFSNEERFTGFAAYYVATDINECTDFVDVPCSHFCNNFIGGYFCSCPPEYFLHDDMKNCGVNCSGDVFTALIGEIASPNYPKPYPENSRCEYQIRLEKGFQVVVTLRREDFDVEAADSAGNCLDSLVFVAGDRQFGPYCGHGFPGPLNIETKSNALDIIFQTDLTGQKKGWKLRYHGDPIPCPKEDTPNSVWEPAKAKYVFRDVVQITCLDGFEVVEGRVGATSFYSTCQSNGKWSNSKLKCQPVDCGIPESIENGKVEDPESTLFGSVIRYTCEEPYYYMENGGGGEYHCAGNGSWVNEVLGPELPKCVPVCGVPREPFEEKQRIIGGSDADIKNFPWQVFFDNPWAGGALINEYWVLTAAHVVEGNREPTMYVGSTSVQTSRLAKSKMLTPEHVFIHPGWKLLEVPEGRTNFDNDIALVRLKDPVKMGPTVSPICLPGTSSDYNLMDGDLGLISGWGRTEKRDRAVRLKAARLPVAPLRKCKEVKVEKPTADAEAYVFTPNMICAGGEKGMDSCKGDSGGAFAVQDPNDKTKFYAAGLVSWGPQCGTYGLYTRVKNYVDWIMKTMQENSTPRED
Nature of the test: ELISA, plate coated with human C1s mutant M1: M277I, OD450nm. The method, then: as §1
Binding of anti-C1s antibodies to mutants M1-M20 of human C1s was measured by ELISA as described in Example 4, and results are shown in FIGS. 6B-6U. All anti-C1s humanized variants including hz2-7(H1L2), hz2-8(H1L2 G80A) and hz2-8(H1L2 G80A/T82A) maintained strong binding properties to the majority (16 out of 20) of C1s mutants including M1 (FIG. 6B), M2 (FIG. 6C), M3 (FIG. 6D). M4 (FIG. 6E), M7 (FIG. 6H), M8 (FIG. 6I), M10 (FIG. 6K), M11 (FIG. 6L), M12 (FIG. 6M), M13 (FIG. 6N), M15 (FIG. 6P), M16 (FIG. 6Q), M17 (FIG. 6R), M18 (FIG. 6S), M19 (FIG. 6T) and M20 (FIG. 6U).

B1: Anti-C1s antibody hz2-7(H1L2) (antibody, V domains shown)
VH: EVQLLESGGGLVQPGGSLRLSCAASGFTFSNYFMNWVRQAPGKGLEWVSEIRLKFTNYATHYADSVKGRFTISRDDSKSTLYLQMNSLRAEDTAVYYCTRDYGSRNGYFDYWGQGTLVTVSS
VL: DIVMTQTPLSLPVTPGEPASISCRSSKSLLHSNGNTFLYWFLQKPGQSPQLLIYRMSNLASGVPDRFSGSGSGTDFTLKISRVEAEDVGVYYCMQHLEYPYTFGGGTKLEIKR
notes: Humanized, human IgG1 / kappa; also called hz2-7(1L2)
As usually defined, the EC50 is the concentration at which the effect is half-maximal. High values mean lower potency in that assay, low ones higher potency in that assay. Regarding B1, the EC50 in test [1] was found to be 6 ng/mL; in test [2], 9 ng/mL.

B2: Anti-C1s antibody 2-7 (antibody, human IgG1, kappa, V domains shown)
VH: EVKLEESGGGLVPPGGSMKLSCVASGFTFSNYFMNWVRQSPEKGLEWVAEIRLKFTNYATHYAESVEGRFTISRDDSKSSVYLQMNNLRAEDTGIYYCTRDYGSRNGYFDYWGQGTTLTVSS
VL: DIVMTQAAPSVPVTPGESVSISCRSSKSLLHSNGNTFLYWFLQRPGQSPQLLIYRMSNLASGVPDRFSGSGSGTAFTLRVSRVEAEDVGIYYCMQHLEYPYTFGGGTKLEIKT
notes: the HC/LC entries may hold it too; also called clone 2-7
B2 gave an EC50 in test [1] of 9 ng/mL.

B3: Anti-C1s antibody hz2-8 (H1L2 G80A) (antibody, V domains shown)
VH: QVQLVQSGAEVKKPGASVKVSCKASGFNIKEYYMHWVRQAPEQGLEWMGWIDPENADTIYAQKFQGRVTITADTSTNTAYMELSSLRSEDTAVYYCARSRLFFAYWGQGTLVTVSS
VL: DIQMTQSPKSLSASVGDRVTITCRASQDVRTALDWYQQKPGQSPKLLIYSASYRYSGVPSRFSGSGSGTDFTLTISSLQPEDFATYYCQQQYTTPYTFGQGTKLEIKR
notes: Humanized variant with G80A in HC CDR2 (already in the entry), human IgG1 / kappa
In test [2], B3 showed an EC50 of 7 ng/mL.

B4: Anti-C1s antibody hz2-8 (H1L2 G80A/T82A) (antibody, V domains shown)
VH: QVQLVQSGAEVKKPGASVKVSCKASGFNIKEYYMHWVRQAPEQGLEWMGWIDPENADAIYAQKFQGRVTITADTSTNTAYMELSSLRSEDTAVYYCARSRLFFAYWGQGTLVTVSS
VL: DIQMTQSPKSLSASVGDRVTITCRASQDVRTALDWYQQKPGQSPKLLIYSASYRYSGVPSRFSGSGSGTDFTLTISSLQPEDFATYYCQQQYTTPYTFGQGTKLEIKR
notes: Humanized variant with G80A and T82A in HC CDR2 (already in the entry), human IgG1 / kappa
For B4, the EC50 in test [2] is 5 ng/mL.

B5: Anti-C1s antibody 2-8 (antibody, V domains shown)
VH: EVQLQQSGAELVRPGALVKLSCKASGFNIKEYYMHWVKQRPEQGLEWIGWIDPENGDTIYDPKFQGKASITADTSSNTAYLQLSSLTSEDTAVYYCARSRLFFAYWGQGTLVTVSA
VL: DIVMTQSHKFMSTSVGDRVSFTCKASQDVRTAVDWYQQKPGQSPKLLIYSASYRYTGVPDRFTGTGSGTDFTFTISSVQAEDLAVYFCQQQYTTPYTFGGGTKLEIKT
notes: the HC/LC entries may hold it too; also called clone 2-8
Regarding B5, the response in test [1] was half-maximal at 12 ng/mL (EC50).
